Data on twelve molecules can be found in US20220332816A1 (SINGLE CELL TECHNOLOGY, published 2022).

Test [1] deals with TIGIT on the engineered cell lines of the TIGIT/CD155 Blockade Bioassay (J2201, Promega) (UniProt Q495A1). Kind of test: cell-based or functional assay.
In the next test the target is T1, Recombinant human TIGIT (human, UniProt Q495A1 22-141, limits assumed).
T1 construct: also called T cell immunoreceptor with Ig and ITIM domains
T1 sequence: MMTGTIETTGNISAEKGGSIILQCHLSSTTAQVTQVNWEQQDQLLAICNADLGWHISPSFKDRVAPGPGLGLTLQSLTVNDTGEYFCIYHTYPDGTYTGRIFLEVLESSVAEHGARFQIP
Kind of test: ELISA, recombinant human TIGIT coated on plate, serially diluted antibody. The method, then: The recombinantly expressed antibodies were used to assess binding activity to TIGIT by conventional ELISA according to the known art. Recombinant human TIGIT was coated onto ELISA plates to detect binding at serially diluted concentrations of the anti-TIGIT antibody preparations (FIG. 1). Anti-TIGIT antibodies' blockade activity was assessed using engineered cell lines, kit reagents (TIGIT/CD155 Blockade Bioassay, J2201, Promega, Madison, Wis.), and a luminometer (Promega, Madison, Wis.) and the results were used to compare against benchmark antibodies with known blockade activity (FIG. 2). Similarly, these antibodies were assessed for their ability to synergize with an anti-PD-1 antibody using a PD-1+TIGIT combination bioassay (Cat. No. J2211 Promega, Madison, Wis.).

Test [2] deals with T2, TIGIT on the engineered cell lines of the TIGIT/CD155 Blockade Bioassay (J2201, Promega) (UniProt Q495A1 22-244, limits assumed).
T2 sequence (looked up): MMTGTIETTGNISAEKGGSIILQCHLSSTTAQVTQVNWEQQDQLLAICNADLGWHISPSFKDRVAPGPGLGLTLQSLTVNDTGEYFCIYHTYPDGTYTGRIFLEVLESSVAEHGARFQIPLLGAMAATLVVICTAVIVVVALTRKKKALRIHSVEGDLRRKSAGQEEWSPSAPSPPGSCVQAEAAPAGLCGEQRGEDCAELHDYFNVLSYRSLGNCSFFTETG
Kind of test: cell-based or functional assay.

For the molecule MK-7684 (antibody), the Blockade EC50 in test [1] turned out to be 24.8 nM.

B1: SCT-Ga487 (antibody, V domains shown)
VH: QVQLQQPGAELVKPGASVKMSCKATGYTFSNYWIEWVKQTPGRGLEWIGEILPGSGSSYYNQKFKGKATLTADKSSSTAYMQLSSLTSEDSAVYYCARQKYGNFYYFDFWGAGTTVTVSA
VL: AIQMTQSPSSLSASVGDRVTITCRASQGIGNYLNWYQQKPGKAPKLLIYYTSSLHSGVPSRFSGSGSGTDYTFTISSLQPEDIATYYCHQYSKLPYTFGQGTKVEIK
Regarding B1, in the test with Recombinant human TIGIT, the EC50 came to 1.96 nM.

B2: SCT-Ga255 (antibody, V domains shown)
VH: EVKLVESGGGLVKPGGSLKLSCAASGFAFSSFDMSWVRQTPEKRLEWVAVISSGGSYTFYPDSVKGRFTISRDNARNTLYLQMSSLRSEDTALYFCTRQDYRYPYIMDYWGQGTSVTVSS
VL: DIQMNQSPSSLSASLGDTITITCHASQNINVWLSWYQQKPGNIPKLLIYKASNLHTGVPSRFSGSGSGAGFTLTISSLQPEDIATYYCQQGQSYPWTFGGGTKLEIK
notes: Murine variable domains
B2: in the test with Recombinant human TIGIT, the concentration giving a half-maximal response (EC50) amounted to 0.96 nM. Moreover, the “Blockade EC50” value in test [2] turned out to be 33.4 nM.

B3: SCT-Ga433 (antibody, V domains shown)
VH: DVKLVESGGGLVKPGGSLKLSCSASGFTFSSYTMSWVRQTPEKRLEWVATISSGGSYTYYPDSVKGRFTISRDNAKNTLYLQMSSLKSEDTAMFYCTRWLLSLYAMDYWGQGTSVTVSS
VL: DIQMNQSPSSLSASLGDTITITCHASQNINVWLSWYQQKPGNISKLLIYKASNFHTGVPSRFSGSGSGTNFTLTISSLQPEDIATYYCQQGQTYPFTFGGGTKLEIK
notes: Murine variable domains
In the case of B3, the concentration for a half-maximal effect (EC50) with Recombinant human TIGIT is 1.1 nM. The “Blockade EC50” value in test [2] stood at 25.2 nM.

B4: SCT-Ga495 (antibody, V domains shown)
VH: EVKLVESGGGLVQPGGSLRLSCAASGFAFSSFDMSWVRQAPGKGLEWVAVISSGGSYTFYPDSVKGRFTISRDNSKNTLYLQMNSLRAEDTALYFCTRQDYRYPYIMDYWGQGTLVTVSS
VL: AIQMTQSPSSLSASVGDRVTITCQASQNINVWLSWYQQKPGKAPKLLIYKASTLASGVPSRFSGSGSGTDFTLTISSLQPDDFATYYCQQGQSYPWTFGGGTKVEIK
On to B4, for which the EC50 with Recombinant human TIGIT amounted to 0.69 nM.

B5: SCT-Ga496 (antibody, V domains shown)
VH: EVKLVESGGGLVQPGGSLRLSCAASGFAFSSFDMSWVRQAPGKGLEWVAVISSGGSYTFYPDSVKGRFTISRDNSKNTLYLQMNSLRAEDTALYFCTRQDYRYPYIMDYWGQGTLVTVSS
VL: DIQMTQSPSSLSASVGDRVTITCHASQNINVWLSWYQQKPGKAPKLLIYKASTLASGVPSRFSGSGSGTDFTLTISSLQPDDFATYYCQQGQSYPWTFGGGTKVEIK
For the molecule B5, in the test with Recombinant human TIGIT, the EC50 stood at 0.67 nM.

B6: SCT-Ga333 (antibody, V domains shown)
VH: QVQLQQSGAELVRPGTSVKVSCKASGYAFTNYLIEWVKQRPGQGLEWIGVINPGSGGNNYNEKFKGKATLTADKSSSTAYMQLSSLTSDDSAVYFCARRGDKYGSAWFAYWGQGTLVTVSA
VL: DIVMTQSHKFMSTSVGDRVSITCKASQDVSTAVAWYQQKPGQSPKLLIYSASYRYTGVPDRFTGSGSGTDFTFTISSVQAEDLAVYYCQQHYSSPRTFGGGTKLEIK
notes: Murine variable domains
On to B6, for which the half-maximal effective concentration (EC50) with Recombinant human TIGIT was determined as 1.08 nM. Besides, in test [2], the “Blockade EC50” value came to 42.2 nM.

B7: SCT-Ga498 (antibody, V domains shown)
VH: QVQLQQSGAEVKKPGASVKVSCKASGYAFTNYLIEWVKQAPGQGLEWIGVINPGSGGNNYNEKFKGRATITADKSTSTAYMELSSLRSEDTAVYFCARRGDKYGSAWFAYWGQGTTVTVSA
VL: DIVMTQSQRFMSTTVGDRVSITCKASQDVSTAVAWYQQKPGQSPKLLIYSASYRYTGVPDRFTGSGSGTDFTLTISNMQSEDLAVYYCQQHYSSPRTFGGGTKLEIK
In the case of B7, the EC50 with Recombinant human TIGIT stood at 0.82 nM.

B8: SCT-Ga001 (antibody, V domains shown)
VH: QVQLQQSGAELVRPGTSVKVSCKASGYAFTNYLIEWVKQRPGQGLEWIGVINPGSGGSKYNEKFKGKTTLTADKSSSTAYMQLSSLTSEDSAVYFCARTGVYGNFLIFDYWGQGTTLTVSS
VL: DIVLTQSPSSLSVAAGEKVTLSCKSSQSLLNSGIQKNYLAWYQQKPGQPPKLLIYGASTRESGVPDRFTGSGSGTDFTLTISSVQAEDLAVYYCQNDHRYPFTFGGGTKLEIK
notes: Murine variable domains
Consider B8, for which, in the test with Recombinant human TIGIT, the EC50 worked out at 5.03 nM. In addition, the “Blockade EC50” value in test [2] was 26.6 nM.

B9: SCT-Ga461 (antibody, V domains shown)
VH: EVQLVESGGGLVQPGGSLRLSCAASGFTFSSYTMSWVRQAPGKGLEWVATISSGGSYTYYPDSVKGRFTISRDNAKNTLYLQMNSLRAEDTAVYYCTRWLLSLYAMDYWGQGTLVTVSS
VL: AIQMTQSPSSLSASVGDRVTITCQASQNINVWLSWYQQKPGKAPKLLIYKASTLASGVPSRFSGSGSGTDFTLTISSLQPDDFATYYCQQGQTYPFTFGGGTKVEIK
As to B9, in the test with Recombinant human TIGIT, the EC50 came to 4.55 nM.

B10: SCT-Ga485 (antibody, V domains shown)
VH: QVQLVQSGAEVKKPGASVKVSCKASGYAFTNYLIEWVKQAPGQGLEWIGVINPGSGGSKYNEKFKGRATITADKSTSTAYMELSSLRSEDTAVYFCARTGVYGNFLIFDYWGQGTTVTVSS
VL: DIVMTQSPDSLAVSLGERATINCKSSQSLLNSGIQKNYLAWYQQKPGQPPKLLIYGASTRESGVPDRFSGSGSGTDFTLTISSLQAEDVAVYYCQNDHRYPFTFGGGTKLEIK
As for B10, the half-maximal effective concentration (EC50) in the test with Recombinant human TIGIT worked out at 0.79 nM.

B11: SCT-Ga249 (antibody, V domains shown)
VH: QVQLQQSGGELMKPGASVKISCKATGYTFSNYWIEWVKQRPGHGLEWIGEILPGSGSSYYNEKFKGRATFTADKSSNTAYMQLSSLTSEDSAVYYCARQKYGNFYYFDFWGQGTTLTVSS
VL: AIQMTQTTSSLSASLGDRVTISCSASQGIGNYLNWYQQKPDGTVKLLIYYTSSLHSGVPSRFSGSGSGTDYSLTISDLEPEDIATYYCHQYSKLPYTFGGGTKLEIK
notes: Murine variable domains
Turning to B11, in the test with Recombinant human TIGIT, the concentration for a half-maximal effect (EC50) was determined as 1.22 nM. Besides, the “Blockade EC50” value in test [2] is 28.1 nM.
